This is an account of results in US20160376333A1.

Assay [1] deals with Epstein-Barr virus BHRF1 a.a. 1-161 with C-terminal avi-6his tag (Epstein-Barr virus). The assay is described as follows: crystal structure PDB 2WH6 of Bim-BH3 bound to BHRF1; solvent-accessible surface buried in the complex.
Assay [2] has the same target.
Assay [3] shares this target. The source holds these as a separate data set.

Chain of Bim-BH3 (peptide) (O43521 141-166): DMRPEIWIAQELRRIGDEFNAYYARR

In turn, Bim-BH3 (peptide) gave a Total buried SASA in assay [1] of 2000 Å2. This substance also registered a buried contact surface on Bim-BH3 in assay [2] of 1100 Å2. In assay [3], this substance displayed a buried contact surface on BHRF1 of 908 Å2.
